The record followed here is publication doi:10.1101/2022.11.04.515179.

The target in data set [1] is OGG1 WT (untagged) (human, UniProt O15527 1-345). Nature of the data set: EMSA. (In general: Mobility shift assays separate free from complexed probe on a gel.)
The target in data set [2] is GST-OGG1 G245A (human, UniProt O15527 1-345, G245A). Nature of the data set: EMSA.
Chain of GST-OGG1 G245A (O15527 whole entry G245A): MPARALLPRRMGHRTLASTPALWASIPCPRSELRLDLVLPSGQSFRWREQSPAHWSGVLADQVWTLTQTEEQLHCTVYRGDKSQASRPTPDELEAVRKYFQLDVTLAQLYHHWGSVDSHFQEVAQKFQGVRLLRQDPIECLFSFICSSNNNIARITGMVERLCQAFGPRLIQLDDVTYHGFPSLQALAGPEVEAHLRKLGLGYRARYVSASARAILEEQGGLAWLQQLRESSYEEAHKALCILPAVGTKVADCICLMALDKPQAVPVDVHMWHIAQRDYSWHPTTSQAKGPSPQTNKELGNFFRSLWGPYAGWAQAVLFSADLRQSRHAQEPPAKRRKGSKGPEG

Chain of OGG1 WT (untagged) (O15527 whole entry): as the sequence (O15527 whole entry G245A) above, with A245G counted along it

B1: 32P 24-mer 8-oxoG:C (dsDNA)
DNA 1: CTGATCGATGACGCCTGACATGAT
DNA 2: ATCATGTCAGGCGTCATCGATCAG
modifications: 8-oxoG at position 13 of strand 1
Regarding B1, the binding result in data set [1] is “binds”.

B2: Cy5 34-mer 8-oxoG:C (dsDNA)
DNA 1: GGCTTCATCGTTGTCGCAGACCTGGTGGATACCG
DNA 2: CGGTATCCACCAGGTCTGCGACAACGATGAAGCC
modifications: 8-oxoG at position 16 of strand 1
In the case of B2, in data set [2], the binding result was “no binding”.
